From patent US20150344540A1, “NOVEL GLP-1 RECEPTOR AGONISTS WITH CHOLESTEROL EFFLUX ACTIVITY” (NOVO NORDISK A/S, priority 2012, published 2015)
Where no end group is shown, it is not given here. [ ]: non-standard residue; d: D form. Aib = CC(C)(N)C(=O)O

biological target: human GLP-1 receptor (human, UniProt P43220); test: cell-based or functional assay

| Binder | CRE luciferase EC50, 0% HSA | CRE luciferase EC50, 1% HSA |
| --- | --- | --- |
| HXEGTFTSDVSSYLEGQAAKEFIAWLVKKXKEFL (Aib at 8, 36; C-terminal amide) [[Aib8,Lys35,Aib36,Lys37]-GLP-1-(7-37)-peptidyl-Glu-Phe-Leu amide] | 0.256 nM | 0.084 nM |
| HXEGTFTSDVSSYLEGQAAKEFIAWLVKKXGEFL (Aib at 8, 36; C-terminal amide) [[Aib8,Lys35,Aib36]-GLP-1-(7-37)-peptidyl-Glu-Phe-Leu amide] | 0.045 nM | 0.015 nM |
| H[Aib]EGTFTSDVSSYLEGKRAREFIAWLVEK[Aib]KEFL-NH2 (N-terminus assumed; SMILES CC[C@H](C)[C@H](NC(=O)[C@H](Cc1ccccc1)NC(=O)[C@H](CCC(=O)O)NC(=O)[C@H](CCCNC(=N)N)NC(=O)[C@H](C)NC(=O)[C@H](CCCNC(=N)N)NC(=O)[C@H](CCCCN)NC(=O)CNC(=O)[C@H](CCC(=O)O)NC(=O)[C@H](CC(C)C)NC(=O)[C@H](Cc1ccc(O)cc1)NC(=O)[C@H](CO)NC(=O)[C@H](CO)NC(=O)[C@@H](NC(=O)[C@H](CC(=O)O)NC(=O)[C@H](CO)NC(=O)[C@@H](NC(=O)[C@H](Cc1ccccc1)NC(=O)[C@@H](NC(=O)CNC(=O)[C@H](CCC(=O)O)NC(=O)C(C)(C)NC(=O)[C@@H](N)Cc1c[nH]cn1)[C@@H](C)O)[C@@H](C)O)C(C)C)C(=O)N[C@@H](C)C(=O)N[C@@H](Cc1c[nH]c2ccccc12)C(=O)N[C@@H](CC(C)C)C(=O)N[C@H](C(=O)N[C@@H](CCC(=O)O)C(=O)N[C@@H](CCCCN)C(=O)NC(C)(C)C(=O)N[C@@H](CCCCN)C(=O)N[C@@H](CCC(=O)O)C(=O)N[C@@H](Cc1ccccc1)C(=O)N[C@@H](CC(C)C)C(N)=O)C(C)C) [[Aib8,Lys23,Arg24,Arg26,Glu34,Lys35,Aib36,Lys37]-GLP-1-(7-37)-peptidyl-Glu-Phe-Leu amide] | 0.383 nM | 0.138 nM |
| H[Aib]EGTFTSDLSKQMEGEAVREFIEWLKNK[Aib]LEFLELL-NH2 (N-terminus assumed; SMILES CC[C@H](C)[C@H](NC(=O)[C@H](Cc1ccccc1)NC(=O)[C@H](CCC(=O)O)NC(=O)[C@H](CCCNC(=N)N)NC(=O)[C@@H](NC(=O)[C@H](C)NC(=O)[C@H](CCC(=O)O)NC(=O)CNC(=O)[C@H](CCC(=O)O)NC(=O)[C@H](CCSC)NC(=O)[C@H](CCC(N)=O)NC(=O)[C@H](CCCCN)NC(=O)[C@H](CO)NC(=O)[C@H](CC(C)C)NC(=O)[C@H](CC(=O)O)NC(=O)[C@H](CO)NC(=O)[C@@H](NC(=O)[C@H](Cc1ccccc1)NC(=O)[C@@H](NC(=O)CNC(=O)[C@H](CCC(=O)O)NC(=O)C(C)(C)NC(=O)[C@@H](N)Cc1c[nH]cn1)[C@@H](C)O)[C@@H](C)O)C(C)C)C(=O)N[C@@H](CCC(=O)O)C(=O)N[C@@H](Cc1c[nH]c2ccccc12)C(=O)N[C@@H](CC(C)C)C(=O)N[C@@H](CCCCN)C(=O)N[C@@H](CC(N)=O)C(=O)N[C@@H](CCCCN)C(=O)NC(C)(C)C(=O)N[C@@H](CC(C)C)C(=O)N[C@@H](CCC(=O)O)C(=O)N[C@@H](Cc1ccccc1)C(=O)N[C@@H](CC(C)C)C(=O)N[C@@H](CCC(=O)O)C(=O)N[C@@H](CC(C)C)C(=O)N[C@@H](CC(C)C)C(N)=O) | 0.506 nM | 0.26 nM |
| H[Aib]EGTFTSDVSSYLEGEAVKKFIAWLVEK[Aib]KEFL-NH2 (N-terminus assumed; SMILES CC[C@H](C)[C@H](NC(=O)[C@H](Cc1ccccc1)NC(=O)[C@H](CCCCN)NC(=O)[C@H](CCCCN)NC(=O)[C@@H](NC(=O)[C@H](C)NC(=O)[C@H](CCC(=O)O)NC(=O)CNC(=O)[C@H](CCC(=O)O)NC(=O)[C@H](CC(C)C)NC(=O)[C@H](Cc1ccc(O)cc1)NC(=O)[C@H](CO)NC(=O)[C@H](CO)NC(=O)[C@@H](NC(=O)[C@H](CC(=O)O)NC(=O)[C@H](CO)NC(=O)[C@@H](NC(=O)[C@H](Cc1ccccc1)NC(=O)[C@@H](NC(=O)CNC(=O)[C@H](CCC(=O)O)NC(=O)C(C)(C)NC(=O)[C@@H](N)Cc1c[nH]cn1)[C@@H](C)O)[C@@H](C)O)C(C)C)C(C)C)C(=O)N[C@@H](C)C(=O)N[C@@H](Cc1c[nH]c2ccccc12)C(=O)N[C@@H](CC(C)C)C(=O)N[C@H](C(=O)N[C@@H](CCC(=O)O)C(=O)N[C@@H](CCCCN)C(=O)NC(C)(C)C(=O)N[C@@H](CCCCN)C(=O)N[C@@H](CCC(=O)O)C(=O)N[C@@H](Cc1ccccc1)C(=O)N[C@@H](CC(C)C)C(N)=O)C(C)C) [[Aib8,Glu23,Val25,Lys27,Glu34,Lys35,Aib36,Lys37]-GLP-1-(7-37)-peptidyl-Glu-Phe-Leu amide] | 0.325 nM | 0.097 nM |
| H[Aib]EGTFTSDVSSYLEGEKVKEFIEWLVEK[Aib]KEFL-NH2 (N-terminus assumed; SMILES CC[C@H](C)[C@H](NC(=O)[C@H](Cc1ccccc1)NC(=O)[C@H](CCC(=O)O)NC(=O)[C@H](CCCCN)NC(=O)[C@@H](NC(=O)[C@H](CCCCN)NC(=O)[C@H](CCC(=O)O)NC(=O)CNC(=O)[C@H](CCC(=O)O)NC(=O)[C@H](CC(C)C)NC(=O)[C@H](Cc1ccc(O)cc1)NC(=O)[C@H](CO)NC(=O)[C@H](CO)NC(=O)[C@@H](NC(=O)[C@H](CC(=O)O)NC(=O)[C@H](CO)NC(=O)[C@@H](NC(=O)[C@H](Cc1ccccc1)NC(=O)[C@@H](NC(=O)CNC(=O)[C@H](CCC(=O)O)NC(=O)C(C)(C)NC(=O)[C@@H](N)Cc1c[nH]cn1)[C@@H](C)O)[C@@H](C)O)C(C)C)C(C)C)C(=O)N[C@@H](CCC(=O)O)C(=O)N[C@@H](Cc1c[nH]c2ccccc12)C(=O)N[C@@H](CC(C)C)C(=O)N[C@H](C(=O)N[C@@H](CCC(=O)O)C(=O)N[C@@H](CCCCN)C(=O)NC(C)(C)C(=O)N[C@@H](CCCCN)C(=O)N[C@@H](CCC(=O)O)C(=O)N[C@@H](Cc1ccccc1)C(=O)N[C@@H](CC(C)C)C(N)=O)C(C)C) [[Aib8,Glu23,Lys24,Val25,Glu30,Glu34,Lys35,Aib36,Lys37]-GLP-1-(7-37)-peptidyl-Glu-Phe-Leu amide] | 0.716 nM | 0.164 nM |
| H[Aib]EGTFTSDVSSYLEGEAVKEFIWWLVEK[Aib]KEFL-NH2 (N-terminus assumed; SMILES CC[C@H](C)[C@H](NC(=O)[C@H](Cc1ccccc1)NC(=O)[C@H](CCC(=O)O)NC(=O)[C@H](CCCCN)NC(=O)[C@@H](NC(=O)[C@H](C)NC(=O)[C@H](CCC(=O)O)NC(=O)CNC(=O)[C@H](CCC(=O)O)NC(=O)[C@H](CC(C)C)NC(=O)[C@H](Cc1ccc(O)cc1)NC(=O)[C@H](CO)NC(=O)[C@H](CO)NC(=O)[C@@H](NC(=O)[C@H](CC(=O)O)NC(=O)[C@H](CO)NC(=O)[C@@H](NC(=O)[C@H](Cc1ccccc1)NC(=O)[C@@H](NC(=O)CNC(=O)[C@H](CCC(=O)O)NC(=O)C(C)(C)NC(=O)[C@@H](N)Cc1c[nH]cn1)[C@@H](C)O)[C@@H](C)O)C(C)C)C(C)C)C(=O)N[C@@H](Cc1c[nH]c2ccccc12)C(=O)N[C@@H](Cc1c[nH]c2ccccc12)C(=O)N[C@@H](CC(C)C)C(=O)N[C@H](C(=O)N[C@@H](CCC(=O)O)C(=O)N[C@@H](CCCCN)C(=O)NC(C)(C)C(=O)N[C@@H](CCCCN)C(=O)N[C@@H](CCC(=O)O)C(=O)N[C@@H](Cc1ccccc1)C(=O)N[C@@H](CC(C)C)C(N)=O)C(C)C) [[Aib8,Glu23,Val25,Trp30,Glu34,Lys35,Aib36,Lys37]-GLP-1-(7-37)-peptidyl-Glu-Phe-Leu amide] | 0.157 nM | 0.054 nM |
| H[Aib]EGTFTSDVSSYLEGE[Aib]VKEFI[Aib]WLVEK[Aib]KEFL-NH2 (N-terminus assumed; SMILES CC[C@H](C)[C@H](NC(=O)[C@H](Cc1ccccc1)NC(=O)[C@H](CCC(=O)O)NC(=O)[C@H](CCCCN)NC(=O)[C@@H](NC(=O)C(C)(C)NC(=O)[C@H](CCC(=O)O)NC(=O)CNC(=O)[C@H](CCC(=O)O)NC(=O)[C@H](CC(C)C)NC(=O)[C@H](Cc1ccc(O)cc1)NC(=O)[C@H](CO)NC(=O)[C@H](CO)NC(=O)[C@@H](NC(=O)[C@H](CC(=O)O)NC(=O)[C@H](CO)NC(=O)[C@@H](NC(=O)[C@H](Cc1ccccc1)NC(=O)[C@@H](NC(=O)CNC(=O)[C@H](CCC(=O)O)NC(=O)C(C)(C)NC(=O)[C@@H](N)Cc1c[nH]cn1)[C@@H](C)O)[C@@H](C)O)C(C)C)C(C)C)C(=O)NC(C)(C)C(=O)N[C@@H](Cc1c[nH]c2ccccc12)C(=O)N[C@@H](CC(C)C)C(=O)N[C@H](C(=O)N[C@@H](CCC(=O)O)C(=O)N[C@@H](CCCCN)C(=O)NC(C)(C)C(=O)N[C@@H](CCCCN)C(=O)N[C@@H](CCC(=O)O)C(=O)N[C@@H](Cc1ccccc1)C(=O)N[C@@H](CC(C)C)C(N)=O)C(C)C) [[Aib8,Glu23,Aib24,Val25,Aib30,Glu34,Lys35,Aib36,Lys37]-GLP-1-(7-37)-peptidyl-Glu-Phe-Leu amide] | 0.396 nM | 0.193 nM |
| H[Aib]EGTFTSDVSSYLEGERVKEFIAWLVEK[Aib]KEFL-NH2 (N-terminus assumed; SMILES CC[C@H](C)[C@H](NC(=O)[C@H](Cc1ccccc1)NC(=O)[C@H](CCC(=O)O)NC(=O)[C@H](CCCCN)NC(=O)[C@@H](NC(=O)[C@H](CCCNC(=N)N)NC(=O)[C@H](CCC(=O)O)NC(=O)CNC(=O)[C@H](CCC(=O)O)NC(=O)[C@H](CC(C)C)NC(=O)[C@H](Cc1ccc(O)cc1)NC(=O)[C@H](CO)NC(=O)[C@H](CO)NC(=O)[C@@H](NC(=O)[C@H](CC(=O)O)NC(=O)[C@H](CO)NC(=O)[C@@H](NC(=O)[C@H](Cc1ccccc1)NC(=O)[C@@H](NC(=O)CNC(=O)[C@H](CCC(=O)O)NC(=O)C(C)(C)NC(=O)[C@@H](N)Cc1c[nH]cn1)[C@@H](C)O)[C@@H](C)O)C(C)C)C(C)C)C(=O)N[C@@H](C)C(=O)N[C@@H](Cc1c[nH]c2ccccc12)C(=O)N[C@@H](CC(C)C)C(=O)N[C@H](C(=O)N[C@@H](CCC(=O)O)C(=O)N[C@@H](CCCCN)C(=O)NC(C)(C)C(=O)N[C@@H](CCCCN)C(=O)N[C@@H](CCC(=O)O)C(=O)N[C@@H](Cc1ccccc1)C(=O)N[C@@H](CC(C)C)C(N)=O)C(C)C) [[Aib8,Glu23,Arg24,Val25,Glu34,Lys35,Aib36,Lys37]-GLP-1-(7-37)-peptidyl-Glu-Phe-Leu amide] | 1.08 nM | 0.273 nM |
